The values that follow come from the supplement of paper PMC10567573.

This series can be described thus: protein stability index of a GFP-peptide fusion (GPS, HEK-293T) (PSI 1-6); higher = more stable. As to conditions: c terminus: a fixed tail appended.

± gives the standard deviation.
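Further: 24-mer peptide tiles fused after GFP, lentivirally expressed, FACS-sorted into six equal bins by GFP/DsRed ratio, decoded by Illumina sequencing, PSI is the read-weighted mean bin number.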

For SGSSYCSFPPSLSSSSSSSPTSGS [LURAP1L], the protein stability index by setting is: (treatment: DMSO) 4.32 ± 0.13; (treatment: MLN4924 1 uM, 8 h) 4.42 ± 0.17.

In the case of EVFIEWGISAKVFGATTNYGKDIV [ZBED1], the protein stability index is, setting by setting: (treatment: DMSO) 2.35 ± 0.64; (treatment: MLN4924 1 uM, 8 h) 2.44 ± 0.3.

PILAPRIFGSNKWTTEQQQRFHEI [ARL6IP1]: the protein stability index runs as follows: (treatment: DMSO) 3.07 ± 0.25; (treatment: MLN4924 1 uM, 8 h) 3 ± 0.22.

Consider SPMSAATLGGLNPSPSEVITPWTP [SMTNL2], for which the protein stability index runs as follows: (treatment: DMSO) 4.44 ± 0.18; (treatment: MLN4924 1 uM, 8 h) 4.46 ± 0.28.

On to TFNRWGTLLAVGCNDGRIVIWDFL [RBBP5], for which the protein stability index worked out at 2.35 ± 0.41 (treatment: DMSO) and 2.18 ± 0.27 (treatment: MLN4924 1 uM, 8 h).

Take DSTTTRQRRSRQNPQSPPQDSSVT [HDAC6]: the protein stability index runs as follows: (treatment: DMSO) 5.13 ± 0.24; (treatment: MLN4924 1 uM, 8 h) 5.53 ± 0.098.

Regarding LDHCANRVLMYGSELDADHPGFKD [TPH1], the protein stability index came out at 4.62 ± 0.27 (treatment: DMSO) and 4.81 ± 0.057 (treatment: MLN4924 1 uM, 8 h).

For VFKCVKRLDGCIYAIKRSKKPLAG [WEE1], the protein stability index is, setting by setting: (treatment: DMSO) 2.23 ± 0.27; (treatment: MLN4924 1 uM, 8 h) 2.28 ± 0.15.

On to FLQNAKTLLKKISEASKAFQMEKI [TRIM55], for which the protein stability index by setting is: (treatment: DMSO) 3 ± 0.65; (treatment: MLN4924 1 uM, 8 h) 2.77 ± 0.42.

For the sequence HARYRVIHFIAVAVCLLGVGTMVG [SLC35F2], the protein stability index by setting is: (treatment: DMSO) 2.42 ± 0.42; (treatment: MLN4924 1 uM, 8 h) 2.28 ± 0.15.

The sequence YQQLEDDKLSQKSSSSKLSRSPLK [EPB41L3] showed a protein stability index (treatment: DMSO) of 4.94 ± 0.6 and a protein stability index (treatment: MLN4924 1 uM, 8 h) of 5.04 ± 0.28.

Take YWRYDEYKRSMDPGYPKMIAHDFP [MMP1]: the protein stability index runs as follows: (treatment: DMSO) 2.29 ± 0.22; (treatment: MLN4924 1 uM, 8 h) 2.18 ± 0.49.

For AALDACSGNDPFAPSEGSAEAAPE [SNAP91], the protein stability index turned out to be 5.43 ± 0.25 (treatment: DMSO) and 5.46 ± 0.3 (treatment: MLN4924 1 uM, 8 h).

Regarding TEDFWRMLWEHNSTIVVMLTKLRE [PTPRD], the protein stability index reads like this: (treatment: DMSO) 2.21 ± 0.25; (treatment: MLN4924 1 uM, 8 h) 2.23 ± 0.27.

The sequence MAKSVKYTVNFLEAKEGDLHRIEI [CARM1] registered a protein stability index (treatment: DMSO) of 2.55 ± 0.61 and a protein stability index (treatment: MLN4924 1 uM, 8 h) of 2.46 ± 0.58.

On to QDQPSEAATGGATLAQTISEAAIG [HDAC6], for which the protein stability index turned out to be 5.09 ± 0.23 (treatment: DMSO) and 5.35 ± 0.15 (treatment: MLN4924 1 uM, 8 h).

In the case of DGAPALCPSPEALSPEPPVYSLQD [PRKX], the protein stability index is, setting by setting: (treatment: DMSO) 5.37 ± 0.098; (treatment: MLN4924 1 uM, 8 h) 5.21 ± 0.15.

With FRGDDGIFDDNFIEERKQGLEQFI [SNX3], the protein stability index by setting is: (treatment: DMSO) 3.28 ± 0.18; (treatment: MLN4924 1 uM, 8 h) 3.76 ± 0.66.

As to QDGVLDLSTKKSPCAGSTSLSHSP [LCOR], the protein stability index is 4.95 ± 0.14 (treatment: DMSO) and 4.96 ± 0.2 (treatment: MLN4924 1 uM, 8 h).

For the sequence RQKIWNNMPKDHPVSCCLGLLLES [DYNC2LI1], the protein stability index runs as follows: (treatment: DMSO) 2.25 ± 0.23; (treatment: MLN4924 1 uM, 8 h) 2.34 ± 0.28.

For QKRSRAIHSSDEGEDQAGDEDEDD [WAS], the protein stability index was determined as 5.69 ± 0.21 (treatment: DMSO) and 5.57 ± 0.24 (treatment: MLN4924 1 uM, 8 h).

For the sequence APRLAVAVPAVTSADSQFSQTTQA [LYSMD4], the protein stability index amounted to 4.76 ± 0.16 (treatment: DMSO) and 4.81 ± 0.19 (treatment: MLN4924 1 uM, 8 h).

FEYPESSGPARVIAIVSVMVILIS [KCNA1] showed a protein stability index (treatment: DMSO) of 2.82 ± 0.47 and a protein stability index (treatment: MLN4924 1 uM, 8 h) of 2.87 ± 0.48.

On to VLQDGCVFEKAGVSISVVHGNLSE [CPOX], for which the protein stability index was determined as 3.21 ± 0.32 (treatment: DMSO) and 3.05 ± 0.53 (treatment: MLN4924 1 uM, 8 h).

As to LRLEEPRMDFAAKLMKNIRFPLMT [KLHL13], the protein stability index was determined as 2.31 ± 0.29 (treatment: DMSO) and 2.43 ± 0.37 (treatment: MLN4924 1 uM, 8 h).

In the case of LEDGQTPLHLSALRDDVLCARMLY [ASB7], the protein stability index by setting is: (treatment: DMSO) 2.67 ± 0.29; (treatment: MLN4924 1 uM, 8 h) 2.93 ± 0.33.

Turning to QARYHDTPYKPPAGRAAAPELSYR [MYORG], the protein stability index came to 3.69 ± 0.15 (treatment: DMSO) and 3.85 ± 0.13 (treatment: MLN4924 1 uM, 8 h).

ILEHAHRGEQTTSQVSWEQDLKLF [FCHSD1]: the protein stability index amounted to 3.43 ± 0.44 (treatment: DMSO) and 3.53 ± 0.68 (treatment: MLN4924 1 uM, 8 h).

For the sequence EKQELQELNDRFANFIEKVRFLEQ [PRPH], the protein stability index by setting is: (treatment: DMSO) 3.08 ± 0.17; (treatment: MLN4924 1 uM, 8 h) 3.29 ± 0.34.

Take PLLSASVTGHTNIVDFLTHHAQTS [FEM1C]: the protein stability index turned out to be 3.11 ± 0.27 (treatment: DMSO) and 3.11 ± 0.23 (treatment: MLN4924 1 uM, 8 h).

Turning to QSLEGDTTKGTSEMSEKRGPTSSN [MLH1], the protein stability index is, setting by setting: (treatment: DMSO) 5.54 ± 0.18; (treatment: MLN4924 1 uM, 8 h) 5.43 ± 0.28.

With IDKFGFIVGSQGAEGALEEVPLEV [TBC1D10A], the protein stability index stood at 4.32 ± 0.16 (treatment: DMSO) and 4.42 ± 0.34 (treatment: MLN4924 1 uM, 8 h).

MPAHLLQDDISSSYTTTTTITAPP [SCD]: the protein stability index (treatment: DMSO) amounted to 3.99 ± 0.21 and the protein stability index (treatment: MLN4924 1 uM, 8 h) was determined as 3.88 ± 0.28.

As for PSLYSSYHQGCLVNPTGNLPMWSN [NANOGP8], the protein stability index runs as follows: (treatment: DMSO) 2.39 ± 0.073; (treatment: MLN4924 1 uM, 8 h) 2.37 ± 0.096.

In the case of VTGPDNGVRESETEQGFGEDLEDL [NFE2L1], the protein stability index reads like this: (treatment: DMSO) 5.79 ± 0.27; (treatment: MLN4924 1 uM, 8 h) 5.62 ± 0.35.

In turn, MEEVLLLGLKDKEGYTSFWNDCIS [GOLPH3L] returned a protein stability index (treatment: DMSO) of 2.29 ± 0.29 and a protein stability index (treatment: MLN4924 1 uM, 8 h) of 2.61 ± 0.27.
